T1: Boi2 SH3 (BOI2_YEAST), P39969
T1 chain: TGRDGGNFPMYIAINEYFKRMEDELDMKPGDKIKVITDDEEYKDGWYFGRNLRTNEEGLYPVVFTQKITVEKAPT

T2: Boi1 SH3 (BOI1_YEAST), P38041
T2 chain: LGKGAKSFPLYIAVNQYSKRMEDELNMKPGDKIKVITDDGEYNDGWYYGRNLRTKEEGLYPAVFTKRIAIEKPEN

T3: Yfr024 SH3 (LSB3_YEAST), P43603
T3 chain: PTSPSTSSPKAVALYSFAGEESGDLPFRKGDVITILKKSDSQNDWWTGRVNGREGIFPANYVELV

T4: Yhr016c SH3 (YSC84_YEAST), P32793
T4 chain: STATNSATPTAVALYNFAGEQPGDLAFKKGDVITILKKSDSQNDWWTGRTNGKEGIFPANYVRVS

T5: Myo5 SH3 (MYO5_YEAST), Q04439
T5 chain: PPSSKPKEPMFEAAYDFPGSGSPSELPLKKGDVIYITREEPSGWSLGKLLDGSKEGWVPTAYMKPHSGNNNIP

T6: Rvs167 SH3 (RV167_YEAST), P39743
T6 chain: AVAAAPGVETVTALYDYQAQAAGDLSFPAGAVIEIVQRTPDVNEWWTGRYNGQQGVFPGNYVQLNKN


Tests used:
Assay in all cases: SPOT array
[1] = biological target: T1, Boi2 SH3 (BOI2_YEAST), P39969
[2] = biological target: T2, Boi1 SH3 (BOI1_YEAST), P38041
[3] = biological target: T3, Yfr024 SH3 (LSB3_YEAST), P43603
[4] = biological target: Sho1 SH3 (SHO1_YEAST), P40073
[5] = biological target: T4, Yhr016c SH3 (YSC84_YEAST), P32793
[6] = biological target: T5, Myo5 SH3 (MYO5_YEAST), Q04439
[7] = biological target: T6, Rvs167 SH3 (RV167_YEAST), P39743

Sho1 SH3 (SHO1_YEAST), P40073, sequence (P40073 295-366): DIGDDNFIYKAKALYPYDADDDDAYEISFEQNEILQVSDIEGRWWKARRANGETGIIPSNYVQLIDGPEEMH

Row | normalised SPOT signal, Boehringer light units (BLU); mean over the file's lines of this peptide [1] | normalised SPOT signal, Boehringer light units (BLU); mean over the file's lines of this peptide [2] | normalised SPOT signal, Boehringer light units (BLU); mean over the file's lines of this peptide [3] | normalised SPOT signal, Boehringer light units (BLU); mean over the file's lines of this peptide [4] | normalised SPOT signal, Boehringer light units (BLU); mean over the file's lines of this peptide [5] | normalised SPOT signal, Boehringer light units (BLU); mean over the file's lines of this peptide [6] | normalised SPOT signal, Boehringer light units (BLU); mean over the file's lines of this peptide [7] | Binder
1 | 59.3 | 58.5 | 323 | 70 | 178 | 318 | 129 | NYHHRETPPPPPSN [YPL055C 201-214]
2 | 17.6 | 49.7 | 63.3 | 144 | 10.4 | 272 | 72.3 | NTIIKFDPGRPIYN [YKL178C 251-264]
3 | 29.5 | 1780 | 63.4 | 126 | 310 | 156 | 121 | NVLLKAKPNDPAAT [YGR123C 104-117]
4 | 102 | 481 | 821 | 147 | 1830 | 956 | 722 | NSTVRRKPHSPNKK [YDR223W 8-21]
5 | 62.6 | 1110 | 116 | 75.6 | 311 | 154 | 62.5 | NTLLKVVPQEPTAV [YPR029C 360-373]
6 | 32.8 | 383 | 565 | 483 | 62 | 580 | 36.2 | PSKKKSKPKVPAKN [YNL106C 1153-1166]
7 | 35 | 228 | 241 | 35.5 | 296 | 151 | 251 | NSVIRGSPGLPDTL [YPL066W 13-26]
8 | 29.7 | 88.2 | 84.5 | 42.7 | 211 | 204 | 60.5 | NTIIKLFPYIPIPV [YLR142W 90-103]
9 | 0.9 | 158 | 93.9 | 16400 | 5.1 | 164 | 34.3 | PANPKILPKIPSGA [YPL137C 1165-1178]
10 | 10.6 | 114 | 268 | 69.6 | 4.6 | 192 | 27.8 | PDLNKRPPREPIEF [YDR195W 471-484]
11 | 30.9 | 310 | 163 | 57.6 | 46.5 | 76.2 | 93.5 | NTINKSNPQGPSDN [YMR067C 383-396]
12 | 16.9 | 178 | 1510 | 1460 | 113 | 423 | 155 | NSNVRIPPTVPSKI [YGR198W 3-16]
13 | 33.2 | 41 | 33.6 | 2.8 | 12 | 280 | 16.6 | NTVEKLQPGLPVII [YBR056W 255-268]
